From patent publication US20150140014A1

Legend:
[1] = target: human c-Met protein (human) (UniProt P08581); assay: SPR (Biacore), antibody immobilized on CM5 chip, human c-Met protein 0.39-100 nM injected
[2] = target: c-Met on human cancer cells (MKN45 gastric cancer cells; NCI-H441 lung cancer cells) (human) (UniProt P08581); assay: cell-based or functional assay
c-Met on human cancer cells (MKN45 gastric cancer cells; NCI-H441 lung cancer cells) (human), sequence (P08581 25-1390): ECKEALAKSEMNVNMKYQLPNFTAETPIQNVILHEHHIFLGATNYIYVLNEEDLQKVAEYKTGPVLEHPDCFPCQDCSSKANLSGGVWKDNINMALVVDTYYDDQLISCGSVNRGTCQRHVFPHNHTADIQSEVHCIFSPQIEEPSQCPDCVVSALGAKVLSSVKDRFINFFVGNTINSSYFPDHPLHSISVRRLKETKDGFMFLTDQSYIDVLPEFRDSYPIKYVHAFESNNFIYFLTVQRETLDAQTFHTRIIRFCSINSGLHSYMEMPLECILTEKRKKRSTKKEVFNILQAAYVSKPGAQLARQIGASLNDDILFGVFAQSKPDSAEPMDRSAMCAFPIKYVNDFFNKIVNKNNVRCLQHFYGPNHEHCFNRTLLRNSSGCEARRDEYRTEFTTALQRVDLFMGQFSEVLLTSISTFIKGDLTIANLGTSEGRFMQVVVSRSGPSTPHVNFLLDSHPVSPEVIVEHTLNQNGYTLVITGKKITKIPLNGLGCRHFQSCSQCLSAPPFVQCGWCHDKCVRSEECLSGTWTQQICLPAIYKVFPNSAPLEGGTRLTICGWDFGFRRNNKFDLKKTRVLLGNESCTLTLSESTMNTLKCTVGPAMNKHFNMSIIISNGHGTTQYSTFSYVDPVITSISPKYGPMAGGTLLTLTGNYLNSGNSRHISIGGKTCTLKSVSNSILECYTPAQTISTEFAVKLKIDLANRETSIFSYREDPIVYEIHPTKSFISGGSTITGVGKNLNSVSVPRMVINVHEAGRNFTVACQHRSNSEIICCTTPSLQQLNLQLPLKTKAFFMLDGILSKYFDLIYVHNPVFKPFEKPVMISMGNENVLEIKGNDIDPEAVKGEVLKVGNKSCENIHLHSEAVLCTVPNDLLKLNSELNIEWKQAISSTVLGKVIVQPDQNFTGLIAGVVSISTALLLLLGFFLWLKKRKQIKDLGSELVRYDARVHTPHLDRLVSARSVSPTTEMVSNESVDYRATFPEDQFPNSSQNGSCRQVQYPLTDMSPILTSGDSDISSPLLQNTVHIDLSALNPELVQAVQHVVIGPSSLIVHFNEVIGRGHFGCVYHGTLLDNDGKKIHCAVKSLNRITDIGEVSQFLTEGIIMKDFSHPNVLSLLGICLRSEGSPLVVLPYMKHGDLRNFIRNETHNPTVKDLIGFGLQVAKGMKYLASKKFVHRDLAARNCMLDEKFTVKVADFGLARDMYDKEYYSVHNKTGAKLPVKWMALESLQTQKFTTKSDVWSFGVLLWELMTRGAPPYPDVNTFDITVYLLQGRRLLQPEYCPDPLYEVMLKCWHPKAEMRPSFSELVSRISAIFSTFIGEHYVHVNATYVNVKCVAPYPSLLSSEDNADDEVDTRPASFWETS

human c-Met protein (human), sequence (P08581 25-932 limits assumed): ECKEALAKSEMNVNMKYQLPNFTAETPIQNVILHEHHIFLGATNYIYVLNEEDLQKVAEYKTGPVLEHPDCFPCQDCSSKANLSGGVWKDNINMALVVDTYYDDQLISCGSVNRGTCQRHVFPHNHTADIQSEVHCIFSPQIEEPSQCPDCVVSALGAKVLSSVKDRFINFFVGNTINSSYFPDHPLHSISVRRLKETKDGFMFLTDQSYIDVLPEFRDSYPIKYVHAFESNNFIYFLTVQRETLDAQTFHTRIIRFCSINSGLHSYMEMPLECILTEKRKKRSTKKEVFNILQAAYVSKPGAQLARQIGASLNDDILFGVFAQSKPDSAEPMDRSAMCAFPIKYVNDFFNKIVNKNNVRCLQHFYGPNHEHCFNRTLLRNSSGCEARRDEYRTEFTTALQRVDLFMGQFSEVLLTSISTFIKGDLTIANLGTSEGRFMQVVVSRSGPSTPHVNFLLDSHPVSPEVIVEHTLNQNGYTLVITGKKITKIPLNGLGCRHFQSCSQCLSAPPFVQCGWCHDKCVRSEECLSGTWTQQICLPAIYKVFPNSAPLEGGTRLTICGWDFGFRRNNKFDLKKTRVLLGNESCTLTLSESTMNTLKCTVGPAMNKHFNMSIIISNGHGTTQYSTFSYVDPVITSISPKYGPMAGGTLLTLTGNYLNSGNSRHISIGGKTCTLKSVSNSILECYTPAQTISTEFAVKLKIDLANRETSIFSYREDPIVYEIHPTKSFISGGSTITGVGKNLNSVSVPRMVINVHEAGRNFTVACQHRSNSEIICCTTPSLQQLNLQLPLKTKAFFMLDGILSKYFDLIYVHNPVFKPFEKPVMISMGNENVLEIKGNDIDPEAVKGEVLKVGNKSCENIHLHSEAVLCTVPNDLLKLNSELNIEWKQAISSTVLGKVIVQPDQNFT

B1: huAbF46-H4-A1 (antibody, from a related filing, V domains shown)
VH: EVQLVESGGGLVQPGGSLRLSCAASGFTFTDYYMSWVRQAPGKGLEWLGFIRNKANGYTTEYSASVKGRFTISRDNSKNTLYLQMNSLRAEDTAVYYCARDNWFAYWGQGTLVTVSS
VL: DIQMTQSPSSLSASVGDRVTITCKSSQSLLASGNQNNYLAWHQQKPGKAPKMLIIWASTRVSGVPSRFSGSGSGTDFTLTISSLQPEDFATYYCQQSYSRPYTFGQGTKVEIKR
Kd [1]: 0.06 nM | koff [1]: 4.53e-05 s⁻¹ | kon [1]: 739000 M⁻¹ s⁻¹ | BrdU assay on NCI-H441 cells (agonism), 10 ug/ml [2]: 25% | degree of degradation of c-Met (total c-Met ELISA, MKN45 cells, 5 ug/ml, 24 hours) [2]: 37%
